Patent US20240407381A1, “FOOD COMPOSITIONS COMPRISING RECOMBINANT CELLS COMPRISING TRANSCOBALAMIN” (IMAGINDAIRY LTD., priority 2021, published 2024)

Test: biochemical tests of B12 binding
Settings: purified recombinant transcobalamin expressed in A. oryzae
From the text: The entire process was scalable to produce the protein in large batches. Afterwards, the inventors feedbacked the expression information (RNAseq) to the machine learning to create better constructs until reaching optimal transcobalamin expression.

B1: transcobalamin: recombinant bovine transcobalamin secreted from A. oryzae and purified from the harvested medium; TC2 expression confirmed (protein, UniProt Q9XSC9 19-432, looked up)
Transcobalamin-2: NICEITEVDSTLVERLGQRLLPWMDRLSQEQLNPSIYVGLRLSSLQAGAKEAHYLHSLKLSYQQSLLRPASNKDDNDSEAKPSMGQLALYLLALRANCEFIGGRKGDRLVSQLKRFLEDEKRAIGHNHQGHPRTSYYQYSLGILALCVHQKRVHDSVVGKLLYAVEHKPHLLQDHVSVDTMAMAGMAFSCLELSNLNPKQRNRINLALKRVQEKILKAQTPEGYFGNVYSTPLALQLLMGSLRPSVELGTACLKAKAALQASLQHKTFQNPLMISQLLPVLNQKSYVDLISPDCQAPRALLEPALETPPQAKVPKFIDVLLKVSGISPSYRHSVSVPAGSSLEDILKNAQEHGRFRFRTQASLSGPFLTSVLGRKAGEREFWQVLRDPDTPLQQGIADYRPKDGETIELRLVGW
B12 binding: effective B12 binding
